We go through 2 substances from US5785967.

For assay [1], the target named is Recombinant human leukemia inhibitory factor (LIF) (human) (UniProt P15018). Briefly: Scatchard analysis, LIF-R/Fc on Protein G Sepharose beads with serial dilutions of 125I-LIF.
Assay [2] addresses LIF receptors on the surface of DA-1 cells. Briefly: 125I-LIF binding to intact DA-1 cells, phthalate oil separation.
The target of assay [3] is Human LIF-R encoded by cDNA clone 65 (pHLIFR-65), expressed on transfected COS-7 cells (human). Briefly: 125I-LIF binding to COS cells transfected with LIF-R cDNA clone 65, Scatchard analysis.

Consider “Soluble human LIF-R/Fc homodimer (Fc fusion)”, for which the Ka in assay [1] came to 9e+08 M⁻¹. Consider “Recombinant human leukemia inhibitory factor (LIF) (from UniProt P15018) (ligand)”, for which the Ka in assay [2] was 7.4e+08 M⁻¹; in assay [3], > 1e+09 M⁻¹.
